doi:10.1101/2020.12.04.411884 (bioRxiv, 2020)

Target: proteasome αΔ12-subunit (Thermoplasma acidophilum 20S proteasome α-subunit, first 12 residues removed) (Thermoplasma acidophilum, UniProt P25156 13-233)
Experiment: […]

Chain of proteasome αΔ12-subunit (Thermoplasma acidophilum 20S proteasome α-subunit, first 12 residues removed) (P25156 13-233, stated change not applied): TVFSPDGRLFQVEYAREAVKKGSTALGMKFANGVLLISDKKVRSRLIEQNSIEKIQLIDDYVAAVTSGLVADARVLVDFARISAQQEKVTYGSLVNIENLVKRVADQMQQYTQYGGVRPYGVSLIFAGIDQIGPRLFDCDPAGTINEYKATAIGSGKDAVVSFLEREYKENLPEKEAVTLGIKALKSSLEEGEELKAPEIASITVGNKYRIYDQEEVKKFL

B1: proteasome β-subunit (Thermoplasma acidophilum 20S proteasome) (natural protein)
chain: TTTVGITLKDAVIMATERRVTMENFIMHKNGKKLFQIDTYTGMTIAGLVGDAQVLVRYMKAELELYRLQRRVNMPIEAVATLLSNMLNQVKYMPYMVQLLVGGIDTAPHVFSIDAAGGSVEDIYASTGSGSPFVYGVLESQYSEKMTVDEGVDLVIRAISAAKQRDSASGGMIDVAVITRKDGYVQLPTDQIESRIRKLGLIL
binding result: binds
